Data from paper PMC4318572 (Journal of biomolecular screening, 2014).

B1: GST–Fyn SH3–strep (domain or fragment)
chain: not shown

Assays:
Assay in all cases: AlphaScreen or HTRF
GST–Fyn SH3–strep = molecular target: B1
P203A Tau = P203A Tau (human, UniProt P10636-8 1-441, P203A)
4R1N Tau = 4R1N Tau (human, UniProt P10636-7 1-412)
3R2N Tau = 3R2N Tau (human, UniProt P10636-5 1-410)
[1] = molecular target: Tau with P232 mutated to alanine (human, UniProt P10636-8 1-441, P232 (alanine scan))
3R0N Tau = 3R0N Tau (human, UniProt P10636-2 1-352)
3R1N Tau = 3R1N Tau (human, UniProt P10636-4 1-381)
P236A Tau = P236A Tau (human, UniProt P10636-8 1-441, P236A)
4R0N Tau = 4R0N Tau (human, UniProt P10636-6 1-383)
P233A Tau = P233A Tau (human, UniProt P10636-8 1-441, P233A)

Measured: binding result

YGRKKRRQRRRRSRTPSLPTPPTREPKK [Tat-tagged peptide spanning the 5th and 6th PXXP motifs in Tau]
binds: GST–Fyn SH3–strep

B1
binds: P203A Tau | 4R1N Tau | 3R2N Tau | [1] | 3R0N Tau | 3R1N Tau | P236A Tau | 4R0N Tau | P233A Tau
